± gives the standard deviation of the averaged measurements.
System: ATP
Assay: switch fluorescence ratio, 500 uM ATP over buffer (Cy3 cluster intensity, sum of 5 cycles each) (fold (ratio)); higher = stronger signal-on switching upon ATP binding; sequences stand for … in TCGTCGGCAGCGTCAGATGTGTATAAGAGACAGTTTTTTTTTTTTTTTTTTTTTTTTT…TC
Details: aptamer strand: ATP DNA aptamer (quencher-CACCTGGGGGAGTATTGCGGAGGAAGG + anchor), 100 nM annealed; ATP concentration: 500 uM
Procedure, shortened: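 Exposure to 500 uM ATP lasted 15 min at 22 °C before imaging, and a selection-buffer image was taken beforehand, for Cy3-labelled switching-strand clusters on a modified Illumina MiSeq flow-cell annealed to 100 nM quencher-labelled ATP aptamer. Five buffer/ATP cycles were run with NaOH stripping and re-annealing between them. The fluorescence ratio per cluster is summed target-cycle over summed buffer-cycle Cy3 intensity, averaged per switch-domain sequence. Clusters outside 100-1000 RFU were excluded.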

Row | Sequence | switch fluorescence ratio
1 | AGTCGGTAGG | 1.02 ± 0.012
2 | TGGTTGGGTA | 0.997 ± 0.018
3 | CATTTAGCTG | 0.9875 ± 0.0055
4 | TTATCGAGTT | 1.03 ± 0.015
5 | CGACAATCAT | 1.039 ± 0.0036
6 | TTTACTCGGA | 1.033 ± 0.0099
7 | TCCGGCACGT | 1.01 ± 0.019
8 | TCGGGGGTCG | 0.954 ± 0.097
9 | CTTGAATGCG | 0.999 ± 0.031
10 | CAGACTTCGG | 0.934 ± 0.016
11 | GAGTGTTCGG | 0.988 ± 0.042
12 | CACCTGTTGC | 1.02 ± 0.011
13 | ATATGGGTAC | 1.034 ± 0.0052
14 | TTTAAAGGAT | 1 ± 0.024
15 | CATAGCAAGG | 1.66 ± 0.099
16 | CTTCACAGGG | 1.06 ± 0.04
17 | ATGTGGTGGT | 1 ± 0.043
18 | CGATTAAATG | 0.993 ± 0.013
19 | AATTATCGGC | 0.998 ± 0.049
20 | TTTAGGAAGT | 1.0072 ± 0.00083
21 | TGAATTTAGC | 1 ± 0.035
22 | TTTGGGGTT | 1.02 ± 0.018
23 | TATGACAGGG | 1.05 ± 0.024
24 | TTCCGGGGGT | 1 ± 0.015
25 | CGTCGAGTGC | 0.962 ± 0.011

Row | Sequence | switch fluorescence ratio
26 | CATGGCTAGT | 1 ± 0.011
27 | GGCGTGCCGA | 1.011 ± 0.0053
28 | TGGTTTCTTG | 0.963 ± 0.042
29 | TGCCACTCCT | 1.0495 ± 4.1e-05
30 | TTTTTTCT | 0.987 ± 0.02
31 | TAGTCGCTCC | 1.03 ± 0.034
32 | AGGGTCAATC | 1.04 ± 0.05
33 | AGTTTTTCAA | 0.9984 ± 0.0073
34 | AAAATATTTA | 1.02 ± 0.012
35 | GATTGATTTT | 1.02 ± 0.044
36 | ACTCTTGCTT | 1.072 ± 0.0046
37 | CCTAGCGGTG | 1.12 ± 0.03
38 | GTGGTGGTTG | 1.01 ± 0.028
39 | ATGCAGGGCT | 0.962 ± 0.041
40 | ATACACAATT | 1.08 ± 0.054
41 | TTGGGTCCGA | 1.01 ± 0.049
42 | ATAGACGTCC | 0.993 ± 0.015
43 | GCTAAATGTT | 0.988 ± 0.015
44 | GATAGTTGCG | 1.03 ± 0.06
45 | ATGAGGTTCA | 0.9759 ± 0.0049
46 | TGCAAAGGGG | 1.01 ± 0.029
47 | GTCAGAGGCA | 0.991 ± 0.011
48 | TTTTGGCTCC | 0.99685 ± 0.00035
49 | GTGTATCGAT | 1.003 ± 0.0081
50 | ATTTGGGGAC | 0.98 ± 0.016

Row | Sequence | switch fluorescence ratio
51 | GATTTCCAGG | 1.2 ± 0.024
52 | ATCACTTTAT | 1.38 ± 0.51
53 | ATAACGATCT | 1.04 ± 0.022
54 | GGACGTAGTT | 0.9578 ± 0.0095
55 | AATTTTGGTG | 0.998 ± 0.047
56 | GTGGTACAGG | 1.02 ± 0.068
57 | TTTTAGTCTT | 1.04 ± 0.078
58 | GGTGACCTTG | 0.9891 ± 0.0037
59 | TTATGGCATC | 0.974 ± 0.029
60 | TAAAGTGAGC | 1.028 ± 0.0051
61 | TACAGTAGCT | 1.09 ± 0.011
62 | GGTTCTTGG | 0.995 ± 0.062
63 | AGCAGAAATT | 1.02 ± 0.054
64 | CTCTTGAGCC | 1.01 ± 0.044
65 | CATAAGGGGA | 0.994 ± 0.038
66 | GGTTCACTTT | 1.02 ± 0.033
67 | TATTTGCACG | 1.07 ± 0.062
68 | TAGGTCGCCA | 1.04 ± 0.011
69 | TGAGTTATCG | 0.968 ± 0.033
70 | ACGTTGTACA | 1.06 ± 0.038
71 | CACATGTTAT | 1.0197 ± 0.00089
72 | TCTTGTGAGT | 0.984 ± 0.012
73 | TTTTGCGCGC | 0.994 ± 0.029
74 | GTTGATCAAT | 1.03 ± 0.031
75 | GCGCTAGTTT | 1 ± 0.016

Row | Sequence | switch fluorescence ratio
76 | CGCTTAATTG | 1.01 ± 0.051
77 | GTTAGTGTTG | 0.978 ± 0.01
78 | GGTATGGTCT | 1.02 ± 0.022
79 | AATCATTAGC | 0.985 ± 0.049
80 | TTGTTTTTCG | 0.978 ± 0.027
81 | GGGCTGTTTG | 0.95379 ± 2.9e-05
82 | GCAAAAATGG | 1.02 ± 0.038
83 | ACGTACTACT | 1.3895 ± 0.00013
84 | ACGGCTGAGC | 1.04 ± 0.03
85 | TTAGTCTGTT | 0.99 ± 0.022
86 | AGGGGAAAAG | 0.993 ± 0.049
87 | GACTGATTGG | 1.02 ± 0.012
88 | TTGGGGGTT | 1.03 ± 0.017
89 | TCCGTTGGTG | 1.01 ± 0.072
90 | TCTATAAATA | 0.985 ± 0.022
91 | TTATCATCCG | 1.08 ± 0.038
92 | GTGGAAGGGG | 0.988 ± 0.03
93 | ACTGGAGGTG | 1.067 ± 0.0038
94 | TTTGGTTGAT | 0.9967 ± 0.0087
95 | GCACGCGAAG | 1.04 ± 0.024
96 | GTGCAATGTA | 1.1 ± 0.015
97 | ATTCATTAGG | 1.02 ± 0.034
98 | TCCGGTTTCG | 1.02 ± 0.039
99 | GTTCTATGGT | 0.998 ± 0.022
100 | GCGAGAATAT | 1.03 ± 0.043

From the supplement of paper PMC10126150
